Molecular target: Htz1^Flag (S. cerevisiae histone H2A.Z with a Flag epitope tag) (S. cerevisiae) (UniProt Q12692)
Test: co-IP

Htz1^Flag (S. cerevisiae histone H2A.Z with a Flag epitope tag) (S. cerevisiae), sequence (Q12692 whole entry): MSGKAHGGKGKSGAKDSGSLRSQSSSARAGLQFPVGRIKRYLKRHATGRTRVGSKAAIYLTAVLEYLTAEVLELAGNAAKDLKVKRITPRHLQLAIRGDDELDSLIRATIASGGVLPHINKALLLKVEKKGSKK
histone H2A (S. cerevisiae, endogenous), sequence (P04911 whole entry): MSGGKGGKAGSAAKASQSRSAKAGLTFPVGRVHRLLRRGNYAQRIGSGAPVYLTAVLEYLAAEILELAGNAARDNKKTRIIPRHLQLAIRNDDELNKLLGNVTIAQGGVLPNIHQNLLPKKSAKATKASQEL

histone H2A (S. cerevisiae, endogenous) (from UniProt P04911 1-132) (natural protein)
estimated molar ratio of H2A and Htz1^Flag in the Flag eluate: 0.49

Reference: publication PMC7251641
